The values below come from patent publication US20230012273A1 (Boehringer Ingelheim, published 2023).

What is called Kd is a measure of binding affinity in units of concentration.

Assay [1] deals with T1, SIRPαV2 domain 1 (amino acids 31-148) with N-terminal GST tag (human, UniProt Q5TFQ8 30-148).
T1 construct: also called domain 1 of the extracellular domain of human SIRPα-V2
Kind of assay: crystal structure. The protocol:
Protein was expressed in Origami B(DE3) cells and purified using standard protocols for GST-tagged proteins. Fractions were analyzed by SDS-PAGE and fractions containing the desired protein were pooled and concentrated to 24 mg/ml in 25 mM HEPES; 100 mM NaCl; 5% Glycerin; pH 7,0.

Assay [2] addresses T2, human SIRPβ1 extracellular domain + His-tag (NP_006056.2) (human, UniProt O00241 30-371).
T2 construct: also called hSIRPβ1; HuSIRPβ1
Kind of assay: SPR, Ab captured, ECD-His analyte. Put shortly: (§1)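 SPR; Ab capture surface, ethanolamine-deactivated (1M, 420 s, 10 μl/min). Analyte: SIRP ECD+His, 2-fold dilution series in 1×HBS-EP+. Inject 300 s @ 30 μl/min; dissoc. 600 s.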
On the technique in general: In SPR one partner is held on a chip, and binding of the other changes the refractive index at the surface.

For assay [3], the target named is T3, human SIRPγ extracellular domain + His-tag (NP_061026.2) (human, UniProt Q9P1W8 29-360).
T3 construct: also called hSIRPγ; HuSIRPγ
T3 sequence (Q9P1W8 29-360): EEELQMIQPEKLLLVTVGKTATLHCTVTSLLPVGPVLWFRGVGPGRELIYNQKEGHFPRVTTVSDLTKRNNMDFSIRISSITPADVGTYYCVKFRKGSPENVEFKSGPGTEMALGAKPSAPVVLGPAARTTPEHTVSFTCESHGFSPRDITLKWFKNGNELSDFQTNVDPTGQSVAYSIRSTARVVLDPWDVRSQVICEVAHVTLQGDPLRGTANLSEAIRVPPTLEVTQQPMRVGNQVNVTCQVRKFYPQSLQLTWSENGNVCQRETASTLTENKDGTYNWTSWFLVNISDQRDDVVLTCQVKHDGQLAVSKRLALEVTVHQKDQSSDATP
The assay is described as follows: SPR, Ab captured, ECD-His analyte. Put shortly:
as §1

In assay [4] the target is T4, human SIRPβL/SIRPβ1v3 extracellular domain + His-tag (NP_001129316.1) (human, UniProt Q5TFQ8 30-371).
T4 construct: also called hSIRPβ1v3; HuSIRPβ1v3
T4 sequence (Q5TFQ8 other isoform, or with tags, fused parts or gaps): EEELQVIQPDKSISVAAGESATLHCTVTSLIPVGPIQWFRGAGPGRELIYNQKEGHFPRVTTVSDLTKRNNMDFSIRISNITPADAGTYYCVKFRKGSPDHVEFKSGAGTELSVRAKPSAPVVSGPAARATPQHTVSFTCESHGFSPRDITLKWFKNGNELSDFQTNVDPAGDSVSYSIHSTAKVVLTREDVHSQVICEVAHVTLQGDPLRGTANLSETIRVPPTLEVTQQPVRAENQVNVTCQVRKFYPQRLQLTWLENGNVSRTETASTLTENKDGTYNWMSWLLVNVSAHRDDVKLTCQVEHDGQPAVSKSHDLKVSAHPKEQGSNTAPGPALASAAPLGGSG
The assay is described as follows: SPR, Ab captured, ECD-His analyte. Put shortly: as §1

Assay [5] concerns the target T5, full-length human SIRPγ (NP_061026.2) on cells (human, UniProt Q9P1W8 29-387).
T5 construct: on CHO and Expi-CHO cells; endogenous on primary human CD3+ T cells; also called γ WT
Kind of assay: flow cytometry, primary human CD3+ T cells. As for the experimental part:
Antibody binding to primary human T cells expressing endogenous SIRPγ is evaluated by flow cytometry. Human peripheral blood mononuclear cells (PBMCs) are blocked with donkey IgG and incubated on ice with increasing concentrations of antibody for 60 minutes, washed and stained with AF647-conjugated donkey F(ab′)₂ anti-human IgG secondary reagent. […] Cells are washed, fixed, and analyzed by flow cytometry. Median fluorescent intensity of CD3+ gated population is determined and used as a measure of antibody binding.

Assay [6] has as its target T6, cynomolgus SIRPα extracellular domain + His-tag (NP_001271679) (cynomolgus monkey).
T6 construct: also called CySIRPα NP_001271679; cynoSIRPα
T6 chain: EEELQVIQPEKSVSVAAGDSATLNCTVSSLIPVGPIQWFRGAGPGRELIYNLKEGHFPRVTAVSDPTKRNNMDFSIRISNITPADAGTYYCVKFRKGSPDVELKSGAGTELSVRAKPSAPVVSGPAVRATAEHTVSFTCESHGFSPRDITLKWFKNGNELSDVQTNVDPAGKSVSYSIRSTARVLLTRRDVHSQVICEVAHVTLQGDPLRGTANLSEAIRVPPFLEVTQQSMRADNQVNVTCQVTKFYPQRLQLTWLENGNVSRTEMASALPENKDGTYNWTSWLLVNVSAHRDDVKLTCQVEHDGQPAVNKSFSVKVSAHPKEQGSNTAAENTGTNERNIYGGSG
Kind of assay: SPR, Ab captured, ECD-His analyte. As for the experimental part:
(§2) The binding affinity of anti-SIRPα antibodies to the various SIRPα analytes is determined by surface plasmon resonance (SPR) using a ProteOn XPR36 (Bio-Rad). The running buffer for this experiment and all dilutions (except where stated) are done in 1×HBS-EP+. […] The sensorchip is deactivated with 1M ethanolamine HCl for 420 sec at a flowrate of 10 μl/min.
(§3) The analyte is injected over the captured antibody for 300 sec at a flowrate of 30 μl/min. The dissociation is done for 600 sec. Two-fold serial dilutions of each SIRP protein (Extracellular Domain+His-Tag) are injected as analyte with the highest concentrations indicated in table 36 below.

The target in assay [7] is T7, cynomolgus SIRPβ1v3 extracellular domain + His-tag (XP_005568593) (cynomolgus monkey).
T7 construct: also called Cyno SIRPβ1v3; cynoSIRPβ1v3
T7 chain: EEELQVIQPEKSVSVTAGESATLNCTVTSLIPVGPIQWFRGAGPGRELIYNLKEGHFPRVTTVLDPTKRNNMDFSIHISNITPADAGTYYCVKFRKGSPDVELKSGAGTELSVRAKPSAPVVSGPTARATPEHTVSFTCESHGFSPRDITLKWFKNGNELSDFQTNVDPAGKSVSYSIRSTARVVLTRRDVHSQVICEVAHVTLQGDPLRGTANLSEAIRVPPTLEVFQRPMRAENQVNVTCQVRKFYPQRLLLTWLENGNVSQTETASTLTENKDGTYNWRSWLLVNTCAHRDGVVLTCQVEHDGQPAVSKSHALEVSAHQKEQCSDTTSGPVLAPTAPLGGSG
The assay is described as follows: SPR, Ab captured, ECD-His analyte. As for the experimental part:
as §2, §3

Assay [8] has as its target T8, cynomolgus SIRPα extracellular domain + His-tag (EGM_02252) (cynomolgus monkey).
T8 construct: also called CySIRPα EGM_02252; cynoSIRPα
T8 chain: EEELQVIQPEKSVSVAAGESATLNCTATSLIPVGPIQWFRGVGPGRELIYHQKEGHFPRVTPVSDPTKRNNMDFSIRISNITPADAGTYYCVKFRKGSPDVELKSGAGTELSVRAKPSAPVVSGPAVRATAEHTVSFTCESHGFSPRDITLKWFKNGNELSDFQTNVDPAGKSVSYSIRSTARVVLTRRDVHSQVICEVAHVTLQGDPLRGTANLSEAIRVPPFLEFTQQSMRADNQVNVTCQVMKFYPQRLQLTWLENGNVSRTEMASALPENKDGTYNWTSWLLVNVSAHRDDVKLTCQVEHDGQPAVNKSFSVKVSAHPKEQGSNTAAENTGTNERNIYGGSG
Kind of assay: SPR, Ab captured, ECD-His analyte. As for the experimental part:
as §2, §3

In assay [9] the target is T9, mouse SIRPα extracellular domain + His-tag (NP_031573) (mouse, UniProt P97797 32-373).
T9 chain: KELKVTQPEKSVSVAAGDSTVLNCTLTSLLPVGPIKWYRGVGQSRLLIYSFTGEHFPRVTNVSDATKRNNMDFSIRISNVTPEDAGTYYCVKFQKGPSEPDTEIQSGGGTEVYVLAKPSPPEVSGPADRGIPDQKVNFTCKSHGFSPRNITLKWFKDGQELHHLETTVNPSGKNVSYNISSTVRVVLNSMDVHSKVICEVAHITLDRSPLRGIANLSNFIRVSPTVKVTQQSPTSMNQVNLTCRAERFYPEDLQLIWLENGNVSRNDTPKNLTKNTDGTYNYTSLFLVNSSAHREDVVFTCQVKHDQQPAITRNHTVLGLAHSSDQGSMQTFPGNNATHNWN
The assay is described as follows: SPR, Ab captured, ECD-His analyte. As for the experimental part:
as §2, §3

For assay [10], the target named is T10, full-length human SIRPβL (NP_001129316.1) on cells (human, UniProt Q5TFQ8 30-398).
T10 construct: on U937 SIRPα KO cells and Expi-CHO cells; also called βL WT; SIRPβ1v3
T10 sequence (Q5TFQ8 30-398): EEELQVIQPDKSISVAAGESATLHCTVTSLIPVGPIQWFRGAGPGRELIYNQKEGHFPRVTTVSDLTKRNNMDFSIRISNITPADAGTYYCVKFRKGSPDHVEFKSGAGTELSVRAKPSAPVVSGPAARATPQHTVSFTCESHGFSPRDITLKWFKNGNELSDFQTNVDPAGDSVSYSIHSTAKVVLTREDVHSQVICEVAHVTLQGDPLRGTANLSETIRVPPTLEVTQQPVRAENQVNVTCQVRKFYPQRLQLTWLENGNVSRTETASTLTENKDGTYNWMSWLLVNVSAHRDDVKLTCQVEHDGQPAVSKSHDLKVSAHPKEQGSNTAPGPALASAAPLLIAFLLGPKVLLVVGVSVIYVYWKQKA
The assay is described as follows: flow cytometry, U937 SIRPα KO cells. The protocol: Antibody binding to cells expressing full-length human SIRPβ1 (NP_006056.2) and SIRPβL (NP_001129316.1) is evaluated by flow cytometry. SIRPβ1- or SIRPβL-expressing U937^{SIRPα KO} cells are blocked with donkey IgG and incubated on ice with increasing concentrations of antibodies for 60 minutes, washed and stained with AF647-conjugated donkey F(ab′)₂ anti-human IgG secondary reagent. Cells are washed, fixed, and analyzed by flow cytometry. Median fluorescent intensity is determined and used as a measure of antibody binding.
(Flow cytometry measures light scatter and fluorescence of single cells or particles in a stream.)

In assay [11] the target is T11, cynomolgus SIRPβ1v3 (XP_005568593) extracellular domain + His-tag (cynomolgus monkey).
T11 construct: SPR analyte; also called Cyno SIRPβ1v3 XP_005568593; cynoSIRPβ1v3; not shown: His-tag
T11 chain: T7 chain
The assay is described as follows: SPR, antibody captured, ECD-His analyte. In a few lines:
as §1

The target of assay [12] is T12, cynomolgus SIRPα (NP_001271679) extracellular domain + His-tag (cynomolgus monkey).
T12 construct: SPR analyte; also called CySIRPα NP_001271679; cynoSIRPα; not shown: His-tag
T12 chain: T6 chain
The assay is described as follows: SPR, antibody captured, ECD-His analyte. Put shortly:
as §1

The target of assay [13] is T13, cynomolgus SIRPα (EGM_02252) extracellular domain + His-tag (cynomolgus monkey).
T13 construct: SPR analyte; also called CySIRPα EGM_02252; cynoSIRPα; not shown: His-tag
T13 chain: T8 chain
Kind of assay: SPR. In a few lines: as §1

Assay [14] has as its target T14, cynomolgus SIRPβ1 (XP_005568598) extracellular domain + His-tag (cynomolgus monkey).
T14 construct: SPR analyte; also called Cyno SIRPβ1 XP_005568598; cynoSIRPβ1; not shown: His-tag
T14 chain: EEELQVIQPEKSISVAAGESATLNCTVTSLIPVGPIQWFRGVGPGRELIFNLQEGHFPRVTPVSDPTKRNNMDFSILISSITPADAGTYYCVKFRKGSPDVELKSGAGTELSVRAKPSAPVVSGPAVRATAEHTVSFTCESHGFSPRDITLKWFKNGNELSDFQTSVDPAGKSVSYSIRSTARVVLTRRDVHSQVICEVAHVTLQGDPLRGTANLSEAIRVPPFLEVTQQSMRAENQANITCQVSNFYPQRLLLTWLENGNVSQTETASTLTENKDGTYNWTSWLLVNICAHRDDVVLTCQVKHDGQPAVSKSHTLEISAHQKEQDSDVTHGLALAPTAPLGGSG
Kind of assay: SPR. In a few lines: as §1

The target of assay [15] is T15, cynomolgus SIRPγ (XP_005568591) extracellular domain + His-tag (cynomolgus monkey, UniProt Q9P1W8 29-359 (human entry)).
T15 construct: SPR analyte; also called Cyno SIRPγ XP_005568591; cynoSIRPγ; not shown: His-tag
T15 chain: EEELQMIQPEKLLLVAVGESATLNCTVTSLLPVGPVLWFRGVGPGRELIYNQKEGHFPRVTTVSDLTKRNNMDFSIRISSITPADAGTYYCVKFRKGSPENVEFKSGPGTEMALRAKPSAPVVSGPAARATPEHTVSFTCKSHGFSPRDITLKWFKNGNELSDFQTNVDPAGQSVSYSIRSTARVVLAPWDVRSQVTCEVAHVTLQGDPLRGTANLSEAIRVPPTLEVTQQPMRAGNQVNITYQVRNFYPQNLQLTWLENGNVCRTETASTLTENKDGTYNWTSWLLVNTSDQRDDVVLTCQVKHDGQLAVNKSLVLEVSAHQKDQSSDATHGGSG
Kind of assay: SPR. Put shortly: as §1

T5 sequence (Q9P1W8 29-387): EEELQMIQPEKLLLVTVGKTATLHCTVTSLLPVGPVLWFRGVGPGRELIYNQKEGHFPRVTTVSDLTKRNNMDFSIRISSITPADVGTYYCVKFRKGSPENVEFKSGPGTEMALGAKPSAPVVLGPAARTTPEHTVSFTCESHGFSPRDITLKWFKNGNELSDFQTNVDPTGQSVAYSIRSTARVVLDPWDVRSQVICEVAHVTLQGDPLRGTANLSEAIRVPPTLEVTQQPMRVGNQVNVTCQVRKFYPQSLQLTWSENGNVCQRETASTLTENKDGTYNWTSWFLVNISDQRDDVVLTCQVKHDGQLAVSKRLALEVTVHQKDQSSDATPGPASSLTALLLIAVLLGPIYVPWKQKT
T1 sequence (Q5TFQ8 other isoform, or with tags, fused parts or gaps): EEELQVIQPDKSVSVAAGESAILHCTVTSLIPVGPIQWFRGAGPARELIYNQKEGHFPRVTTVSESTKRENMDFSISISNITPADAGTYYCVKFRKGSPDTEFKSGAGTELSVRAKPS
T2 sequence (O00241 other isoform, or with tags, fused parts or gaps): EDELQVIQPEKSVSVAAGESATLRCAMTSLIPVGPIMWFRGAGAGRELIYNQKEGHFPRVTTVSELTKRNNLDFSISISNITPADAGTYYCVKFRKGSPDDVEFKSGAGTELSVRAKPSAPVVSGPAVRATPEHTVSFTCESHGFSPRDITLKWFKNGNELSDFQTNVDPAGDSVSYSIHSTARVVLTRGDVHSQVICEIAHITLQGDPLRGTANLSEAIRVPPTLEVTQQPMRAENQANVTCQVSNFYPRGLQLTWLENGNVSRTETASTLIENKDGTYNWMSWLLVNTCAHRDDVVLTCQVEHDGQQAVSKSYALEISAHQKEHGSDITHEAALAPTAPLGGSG

B1: Fab fragment of Antibody A (Fab, V domains shown)
VH: EVQLVESGGGLVQPGGSLRLSCAASGFTLSSYDMHWVRQATGKGLEWVSAIGTAGDTYYTGSVKGRFTISRENAKNSLYLQMNSLRAGDTAVYYCVRGGVWDDAFDIWGQGTMVTVSS
VL: DIQMTQSPSSLSASVGDRVTITCRASQDINNYLAWFQQKPGKAPKSLIYTASSLHSGVPSKFSGSGSGTDFTLTISSLQPEDFATYYCQQYVSYPYTFGQGTKLEIK
notes: Fab; also called Fab of Antibody A
Turning to B1, the binding result in assay [1] was “binds”.

B2: Antibody F (antibody, human IgG4 S228P, kappa)
heavy: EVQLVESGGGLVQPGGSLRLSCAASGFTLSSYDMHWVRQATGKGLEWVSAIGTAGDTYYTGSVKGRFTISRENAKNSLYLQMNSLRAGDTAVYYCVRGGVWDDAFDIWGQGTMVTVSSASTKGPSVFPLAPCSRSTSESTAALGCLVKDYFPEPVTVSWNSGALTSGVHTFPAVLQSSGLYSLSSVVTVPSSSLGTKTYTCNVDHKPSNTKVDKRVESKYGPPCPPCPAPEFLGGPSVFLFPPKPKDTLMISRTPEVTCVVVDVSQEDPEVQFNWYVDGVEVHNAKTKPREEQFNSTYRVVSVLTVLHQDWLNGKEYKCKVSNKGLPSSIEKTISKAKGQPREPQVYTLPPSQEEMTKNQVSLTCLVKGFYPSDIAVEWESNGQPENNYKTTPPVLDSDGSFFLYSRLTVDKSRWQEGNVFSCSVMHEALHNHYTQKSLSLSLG
light: DIQMTQSPSSLSASVGDRVTITCRASQDINNYLAWFQQKPGKAPKSLIYTASSLHSGVPSKFSGSGSGTDFTLTISSLQPEDFATYYCQQYVSYPYTFGQGTKLEIKRTVAAPSVFIFPPSDEQLKSGTASVVCLLNNFYPREAKVQWKVDNALQSGNSQESVTEQDSKDSTYSLSSTLTLSKADYEKHKVYACEVTHQGLSSPVTKSFNRGEC
In the case of B2, the Kd was 84 nM in assay [2], 506 nM in assay [6], 227 nM in assay [7] and 230 nM in assay [8]. The binding result in assay [3] is listed as “no binding (tested: 1000 nM)”; in [4], “no binding (tested: 100 nM)”; in assay [5] it was “no binding”; in assay [9], “no binding”; in assay [10], “no binding”.

B3: Antibody E16 (antibody, human IgG1, kappa, L234A L235A, V domains shown)
VH: QVQLQESGPGLVRPSETLSLTCTVSGGSIRNYYWSWIRQPPGKGLEWIGFIYYNGRTFYNPSLKSRVTISLDTSKNQFSLKMTSVTAADTAVYYCARVRAYSGIGLDGTDVWGQGTTVTVSS
VL: DIVMTQSPLSLPVTPGEPASISCKSSQSLLYSNAYNYLDWYLQRPGQSPQLLIYLGSNRASGVPDRFSGSGSGTDFTLKISRVEAEDVGVYYCMQALQTPLTFGGGTKVEIKR
Regarding B3, the Kd in [11] is 30.3 nM; in assay [12] it was 50.3 nM. The binding result in assay [13], in [14] and in assay [15] was “no binding (tested: 1000 nM)” in each case.
